The values below are quoted from earlier work in paper PMC5023690.

The target of series [1] is ONE-GC M836-C1110 (Rattus norvegicus) (UniProt P51839). Kind of series: SPR; given as Ka.
Series [2] has the same target. Kind of series: SPR.

Chain of UniProt P51839 (P51839 836-1110): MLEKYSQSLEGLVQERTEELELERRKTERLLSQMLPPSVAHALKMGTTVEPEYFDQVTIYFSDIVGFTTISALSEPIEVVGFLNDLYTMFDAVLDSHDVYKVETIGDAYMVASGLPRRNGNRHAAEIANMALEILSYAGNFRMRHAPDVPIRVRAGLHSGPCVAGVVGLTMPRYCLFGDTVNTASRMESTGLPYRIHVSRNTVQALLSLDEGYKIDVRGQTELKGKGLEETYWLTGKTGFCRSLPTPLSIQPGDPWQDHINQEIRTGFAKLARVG

For the substance Frq (frequenin) (from UniProt P62166), the Kd in series [1] was 426 nM; in series [2], 430 nM.

By Kd is commonly meant the equilibrium constant for the complex coming apart.
